Patent US8273342B2, “Anti-virus therapy for respiratory diseases” (University of Southampton, priority 2004, dated 2012)

What was measured:
RV16 [1] = experiment: RV16 viral RNA in BEAS2B cell lysates, TaqMan PCR; format: cell-based, rhinovirus; conditions: BEAS2B cells treated 24 h with different doses of IFN-λ1 before infection
Procedure: (§1) The human bronchial epithelial cell-line BEAS2B was infected with RV. TaqMan® PCR was used to identify IFN-λs mRNA expression and a bioassay was employed for corresponding protein production. BEAS2B cells were treated for 24 h with different doses of IFN-λ1 before infection with RV. Both TaqMan® PCR for viral RNA in cell lysates and viral titration of the BEAS2B supernatant were performed to investigate the antiviral effect.
(§2) The human bronchial epithelial cell-line BEAS2B and bronchial primary cells from asthmatics (6) and normal patients (5) were infected with RV16. TaqMan® PCR for IFN-λ mRNA expression was used. BEAS2B cells were treated with IFN-λ1 before infection with RV16. Both TaqMan® PCR for viral RNA in cell lysates and viral titration of the BEAS2B supernatant were performed to investigate the antiviral effect. TaqMan® PCR for viral RNA in cell lysates of primary cells was used also to test weather RV16 infectivity was different between primary cells from asthmatics and normals.

RV16 [2] = experiment: RV16 virus release, viral titration of BEAS2B supernatant; format: cell-based, rhinovirus; conditions: BEAS2B cells treated 24 h with different doses of IFN-λ1 before infection
Procedure: as §1, §2

rhinovirus [3] = experiment: Virus induced cytopathic effect in HeLa cell titration assay; format: cell-based
BEAS2B cells = experiment: Induction of type I and type III interferons in BEAS2B cells; format: cell-based, human
rhinovirus [4] = conditions: general population volunteers, Higgins et al. 1986; cited from earlier work
natural colds = conditions: Sperber et al. 1989; cited from earlier work

B1: IFN-λ1: type III interferon, Interferon λ-1 also known as IL-29, amino acid sequence SEQ ID NO: 5 (protein, listed as Homo sapiens)
chain: MAAAWTVVLVTLVLGLAVAGPVPTSKPTTTGKGCHIGRFKSLSPQELASFKKARDALEESLKLKNWSCSSPVFPGNWDLRLLQVRERPVALEAELALTLKVLEAAAGPALEDVLDQPLHTLHHILSQLQACIQPQPTAGPRPRGRLHHWLHRLQEAPKKESAGCLEASVTFNLFRLLTRDLKYVADGNLCLRTSTHPEST
rhinovirus 16 viral RNA in cell lysates (RV16 [1]): dose-dependent anti-viral effect
rhinovirus 16 viral RNA in cell lysates (RV16 [1]; listed as IFNλ-1): reducing rhinovirus 16 viral RNA expression
virus release in the supernatant by viral titration (RV16 [2]): dose-dependent anti-viral effect
virus release in the supernatant by viral titration (RV16 [2]; listed as IFNλ-1): reducing virus release
virus induced cytopathic effect (rhinovirus [3]): inhibited
induction of IFNλ-1, IFNλ2-3 and interferon β (BEAS2B cells): induces itself as well as IFNλ2-3 and interferon β

B2: IFN-β-ser: recombinant interferon-beta serine, nasal drops tested in published prophylaxis trials (protein, UniProt P01574 22-187, looked up, variant C17S)
Interferon beta: MSYNLLGFLQRSSNFQSQKLLWQLNGRLEYCLKDRMNFDIPEEIKQLQQFQKEDAALTIYEMLQNIFAIFRQDSSSTGWNETIVENLLANVYHQINHLKTVLEEKLEKEDFTRGKLMSSLHLKRYYGRILHYLKAKEYSHCAWTIVRVEILRNFYFINRLTGYLRN
effect against experimental rhinovirus infection (rhinovirus [4]): promising beneficial effects
prophylaxis of natural colds (natural colds): ineffective
